For assay [1], the target named is T1, TRAIL-R2/Fc fusion protein (R & D Systems) (UniProt O14763 54-182, limits assumed).
T1 construct: not shown: Fc part of the bought fusion; captured with anti-human IgG Fc antibody
Nature of the assay: TRAIL-R2 phage ELISA.

Assay [2] addresses T1, TRAIL-R2/Fc fusion protein (R & D …). As to the kind of experiment: TRAIL-R2 phage ELISA. The source holds these as a separate data set.

Like-named read-outs stand apart in the source and are kept apart here.

The record followed here is US20100298541A1 (published 2010).

T1 sequence (O14763 54-182 limits assumed): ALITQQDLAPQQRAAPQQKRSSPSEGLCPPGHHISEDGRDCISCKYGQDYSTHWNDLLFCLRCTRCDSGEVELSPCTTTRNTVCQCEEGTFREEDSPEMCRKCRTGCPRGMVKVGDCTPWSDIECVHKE

B1: 1C10 (designed binder)
chain: IEVKDVTDTTALITWSPCCPYDRYTGCELTYGIKDVPGDRTTIDLQSSRSHYSIGNLKPDTEYEVSLICITTFGHVSNPAKETFTT
As for B1, the binding result in assay [1] was “binds”.

B2: 2A11 (designed binder)
chain: IEVKDVTDTTALITWSPPFRAGHVTGCELTYGIKDVPGDRTTIDLVTARCQYSIGNLKPDTEYEVSLICTTGNGLRSNPAKETFTT
As to B2, the binding result in assay [1] is listed as “binds”.

B3: 2H6 (designed binder)
chain: IEVKDVTDTTALITWATPSVFDSHIEGCELTYGIKDVPGDRTTIDLTEDENQYSIGNLKPDTEYEVSLICWKHHGDAWSKETFTT
Regarding B3, the binding result in assay [2] is “binds”.

B4: 6F11 (designed binder)
chain: IEVKDVTDTTALITWSPSVARMLETGCELTYGIKDVPGDRTTIDLTEDENQYSIGNLKPDTEYEVSLICITLCGRGVSKETFTT
Take B4: the binding result in assay [2] is on record as “binds”.

B5: 1G11 (designed binder)
chain: IEVKDVTDTTALITWSWAQANPGGCELTYGIKDVPGDRTTIDLWHSITFYSIGNLKPDTEYEVSLICKTKVQSSNPAKETFTT
B5: the binding result in assay [1] was “binds”.

B6: 2F4 (designed binder)
chain: IEVKDVTDTTALITWSPCIMVCLRTGCELTYGIKDVPGDRTTIDLTEDENQYSIGNLKPDTEYEVSLICRRGDMSGAPAKETFTT
Turning to B6, the binding result in assay [2] was “binds”.

B7: 5B10 (designed binder)
chain: IEVKDVTDTTALITWSPCLFVCLRTGCELTYGIKDVPGDRTTIDLTEDENQYSIGNLKPDTEYEVSLICRRGDMSGAPAKETFTT
In the case of B7, the binding result in assay [2] is “binds”.

B8: 2B04 (designed binder)
chain: IEVKDVTDTTALITWAPPMLTDSEINGCELTYGIKDVPGDRTTIDLTSSYWSYSIGNLKPDTEYEVSLICSTLRRNAISKETFTT
notes: also called 2B4
For the molecule B8, the binding result in assay [1] was “binds”.

B9: 1B04 (designed binder)
chain: IEVKDVTDTTALITWSPSHGVESSTGCELTYGIKDVPGDRTTIDLHGLQRVYSIGNLKPDTEYEVSLICAKICGHLVSKETFTT
For B9, the binding result in assay [1] is “binds”.

B10: 1B12 (designed binder)
chain: IEVKDVTDTTALITWAKPRQGGSNISGCELTYGIKDVPGDRTTIDLYHKGLHYSIGNLKPDTEYEVSLICPKMTGYTYSKETFTT
Turning to B10, the binding result in assay [1] is given as “binds”.

B11: 2F02 (designed binder)
chain: IEVKDVTDTTALITWSPSRGGTSLTGCELTYGIKDVPGDRTTIDLDQVRATYSIGNLKPDTEYEVSLICHTNSGQPSNPAKETFTT
For the molecule B11, the binding result in assay [1] was “binds”.

B12: 6C7 (designed binder)
chain: IEVKDVTDTTALITWAKPMSCSGYIQGCELTYGIKDVPGDRTTIDLTEDENQYSIGNLKPDTEYEVSLICAKLTGWLCSKETFTT
notes: Lower case q is a TAG codon read as glutamine
Regarding B12, the binding result in assay [2] is “binds”.

B13: 1C12 (designed binder)
chain: IEVKDVTDTTALITWAKPEKWDGSIYGCELTYGIKDVPGDRTTIDLNSRHTAYSIGNLKPDTEYEVSLICFTPYGAKSNPAKETFTT
notes: also called monomeric 1C12
B13: the binding result in assay [1] is “binds”.

B14: 10D9 (designed binder)
chain: IEVKDVTDTTALITWSPPLFCCQKTGCELTYGIKDVPGDRTTIDLTEDENQYSIGNLKPDTEYEVSLICFKLTGFLYSKETFTT
notes: Lower case q in the BC loop is a TAG codon read as glutamine in the suppressor strain
In the case of B14, in assay [2], the binding result is reported as “binds”.

B15: 7G11 (designed binder)
chain: IEVKDVTDTTALITWAKPSIVNGFISGCELTYGIKDVPGDRTTIDLTEDENQYSIGNLKPDTEYEVSLICDKCFGAMKSKETFTT
Consider B15, for which the binding result in assay [2] is given as “binds”.

B16: 1H05 (designed binder)
chain: IEVKDVTDTTALITWSPGMFDQVRTGCELTYGIKDVPGDRTTIDLGKYWERYSIGNLKPDTEYEVSLICRNQYGQHQSKETFTT
As for B16, the binding result in assay [1] was “binds”.

B17: 1D8 (designed binder)
chain: IEVKDVTDTTALITWSPCQMLSSLTGCELTYGIKDVPGDRTTIDLNIERPKYSIGNLKPDTEYEVSLICFTMTGYRSNPAKETFTT
As for B17, the binding result in assay [1] is on record as “binds”.

B18: 1E05 (designed binder)
chain: IEVKDVTDTTALITWSPCSPCQLVTGCELTYGIKDVPGDRTTIDLSCTRAKYSIGNLKPDTEYEVSLICINKLGDTSNPAKETFTT
For B18, the binding result in assay [1] is on record as “binds”.

B19: 1C06 (designed binder)
chain: IEVKDVTDTTALITWSPRMYTWIQTGCELTYGIKDVPGDRTTIDLTHLSGSYSIGNLKPDTEYEVSLICLKLTRTHISKETFTT
On to B19, for which the binding result in assay [1] is reported as “binds”.

B20: 2F08 (designed binder)
chain: IEVKDVTDTTALITWSHAGGIRIGCELTYGIKDVPGDRTTIDLHVWQVYYSIGNLKPDTEYEVSLICMTPYLLGNPAKETFTT
For the molecule B20, the binding result in assay [1] is listed as “binds”.

B21: 1A03 (designed binder)
chain: IEVKDVTDTTALITWAPPPFSNSCIIGCELTYGIKDVPGDRTTIDLRPGRASYSIGNLKPDTEYEVSLICSTGTGLPSNPAKETFTT
On to B21, for which the binding result in assay [1] is on record as “binds”.

B22: 2G03 (designed binder)
chain: IEVKDVTDTTALITWSPGPLLRHTTGCELTYGIKDVPGDRTTIDLRPIPRAYSIGNLKPDTEYEVSLICRNRPQQSNPAKETFTT
B22: in assay [1], the binding result is “binds”.

B23: 3B11 (designed binder)
chain: IEVKDVTDTTALITWSPCQLLALITGCELTYGIKDVPGDRTTIDLNSRHYHYSIGNLKPDTEYEVSLICYTSTGQRSNPAKETFTT
As for B23, in assay [1], the binding result is “binds”.

B24: 2A12 (designed binder)
chain: IEVKDVTDTTALITWSPCCQEFTLTGCELTYGIKDVPGDRTTIDLHNHHHHYSIGNLKPDTEYEVSLICITDAGNKSNPAKETFTT
With B24, the binding result in assay [1] was “binds”.

B25: 2D3 (designed binder)
chain: IEVKDVTDTTALITWSPGGFQKITTGCELTYGIKDVPGDRTTIDLVNRRNHYSIGNLKPDTEYEVSLICLTYKARAISKETFTT
Take B25: the binding result in assay [1] was “binds”.

B26: 1E03 (designed binder)
chain: IEVKDVTDTTALITWAAPFFGSSYISGCELTYGIKDVPGDRTTIDLHYYVTRYSIGNLKPDTEYEVSLICVNLSGHMPSKETFTT
notes: also called 1E3
B26: the binding result in assay [1] is listed as “binds”.

B27: 8B3 (designed binder)
chain: IEVKDVTDTTALITWSPPEYAFYYTGCELTYGIKDVPGDRTTIDLTEDENQYSIGNLKPDTEYEVSLICVKNCGLFSNPAKETFTT
As to B27, the binding result in assay [2] is “binds”.
